Where a chain is given by its changes, count along the chain named. Each block holds one binder with its values, some of them ahead of it.
Key:
full length human KLRG1 [1] = target: T1, full length human KLRG1 (human, UniProt Q96E93 1-195); assay: FACS, HIS tagged E-cadherin on CHO-hKLRG1 cells, anti-HIS detection
T1 construct: whole, on cells; also called CHO-human-KLRG1; CHO-hKLRG1
T1 sequence (looked up): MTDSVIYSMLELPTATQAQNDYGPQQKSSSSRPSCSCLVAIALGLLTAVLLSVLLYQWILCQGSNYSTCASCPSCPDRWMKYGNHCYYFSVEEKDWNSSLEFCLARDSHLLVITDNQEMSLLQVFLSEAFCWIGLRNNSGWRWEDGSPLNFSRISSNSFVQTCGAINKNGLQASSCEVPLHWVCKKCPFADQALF
Description: (§1) The ability of monoclonal antibodies to inhibit E-cadherin/KLRG1 binding was measured by FACS. Binding of E-cadherin to CHO-hKLRG1 cells was first determined by incubating the KLRG1 expressing cells with varying concentration of HIS tagged recombinant E-cadherin and detected by FACS with anti-HIS detection antibody.

full length human KLRG1 [2] = target: T1, full length human KLRG1; assay: cell-based or functional assay
[3] = target: T2, full length cynomolgus KLRG1 (cynomolgus, UniProt A0A2K5WAP9 1-186); assay: FACS on CHO-cynomolgus-KLRG1 cells
T2 construct: whole, on cells; also called Cyno KLRG1; CHO-cynomolgus-KLRG1
T2 sequence: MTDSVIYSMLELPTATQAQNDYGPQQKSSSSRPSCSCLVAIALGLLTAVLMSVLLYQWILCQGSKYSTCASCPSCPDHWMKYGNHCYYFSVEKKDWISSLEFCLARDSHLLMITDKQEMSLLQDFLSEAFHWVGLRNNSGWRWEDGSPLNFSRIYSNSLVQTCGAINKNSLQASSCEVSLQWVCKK
Description: (§2) Binding of anti-KLRG1 monoclonal antibodies to cell expressed human and cynomolgus-KLRG1 was carried out by FACS. Chinese hamster ovary (CHO) cells were stably transfected to express full length human KLRG1 (CHO-human-KLRG1) and cynomolgus KLRG1 (CHO-cynomolgus-KLRG1).

cynomolgus KLRG1 ECD = target: T3, cynomolgus KLRG1 ECD (cynomolgus, biotinylated in the OCTET assay, site not stated); assay: hybridoma screen for binding to KLRG1 ECD
T3 construct: Recombinant proteins were made as FC fusion or as HIS tagged versions; also called cynonolgus KLRG1 ECD
T3 chain: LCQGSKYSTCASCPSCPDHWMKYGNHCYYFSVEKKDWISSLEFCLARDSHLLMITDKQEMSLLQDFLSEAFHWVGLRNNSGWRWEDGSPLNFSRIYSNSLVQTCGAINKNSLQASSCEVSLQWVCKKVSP

full length human KLRG1 [4] = target: T1, full length human KLRG1; assay: FACS on CHO-human-KLRG1 cells
Description: as §2

full length human KLRG1 [5] = target: T1, full length human KLRG1; assay: E-cadherin binding inhibition study, FACS on CHO-hKLRG1 cells; labels of Table 12 stand one row too low, value agrees with ABC_G1N08 in Table 8
Description: as §1
(§3) IC50 values for each antibody were derived from E-cadherin binding inhibition studies and plotted against IFNγ production levels measured in CD8+ T cells IFNγ release assays.

full length human KLRG1 [6] = target: T1, full length human KLRG1; assay: cell-based or functional assay; remark: listed apart in the source
full length human KLRG1 [7] = target: T1, full length human KLRG1; assay: FACS competition, loss of HIS tagged E-cadherin binding to CHO-hKLRG1 cells
Description: as §1

full length human KLRG1 [8] = target: T1, full length human KLRG1; assay: E-cadherin binding inhibition study, FACS on CHO-hKLRG1 cells; labels of Table 12 stand one row too low, value agrees with ABC_G1N05 in Table 8
Description: as §1, §3

full length human KLRG1 [9] = target: T1, full length human KLRG1; assay: E-cadherin binding inhibition study, FACS on CHO-hKLRG1 cells; labels of Table 12 stand one row too low, value agrees with ABC_G1N07 in Table 8
Description: as §1, §3

full length human KLRG1 [10] = target: T1, full length human KLRG1; assay: E-cadherin binding inhibition study, FACS on CHO-hKLRG1 cells; labels of Table 12 stand one row too low, value agrees with ABC_G1N02 (5.03) in Table 8
Description: as §1, §3

EC50 (full length human KLRG1 [1]): 1000 nM
B1: HIS tagged recombinant E-cadherin (ligand)
chain: DWVIPPISCPENEKGPFPKNLVQIKSNKDKEGKVFYSITGQGADTPPVGVFIIERETGWLKVTEPLDRERIATYTLFSHAVSSNGNAVEDPMEILITVTDQNDNKPEFTQEVFKGSVMEGALPGTSVMEVTATDADDDVNTYNAAIAYTILSQDPELPDKNMFTINRNTGVISVVTTGLDRESFPTYTLVVQAADLQGEGLSTTATAVITVTDTNDNPPIFNPTTYKGQVPENEANVVITTLKVTDADAPNTPAWEAVYTILNDDGGQFVVTTNPVNNDGILKTAKGLDFEAKQQYILHVAVTNVVPFEVSLTTSTATVTVDVLDVNEAPIFVPPEKRVEVSEDFGVGQEITSYTAQEPDTFMEQKITYRIWRDTANWLEINPDTGAISTRAELDREDFEHVKNSTYTALIIATDNGSPVATGTGTLLLILSDVNDNAPIPEPRTIFFCERNPKPQVINIIDADLPPNTSPFTAELTHGASANWTIQYNDPTQESIILKPKMALEVGDYKINLKLMDNQNKDQVTTLEVSVCDCEGAAGVCRKAQPVEAGLQIPA
notes: also called human E-cadherin; not shown: HIS tag

IFNγ (full length human KLRG1 [2]): 1040 pg/mL
EC50 [3]: 1.3 nM
binding result (cynomolgus KLRG1 ECD): binds
EC50 (full length human KLRG1 [4]): 4.8 nM
IC50 (full length human KLRG1 [5]): 10 nM
IFNγ released (pg/ml), Sample 1 (full length human KLRG1 [6]): 1010 pg/mL
IFNγ released (pg/ml), Sample 2 (full length human KLRG1 [6]): 1060 pg/mL
IC50 (full length human KLRG1 [7]): 10 nM
B2: ABC_G1N08 (antibody, V domains shown)
VH: QVQLQQSGAELAKPGASVKLSCKASGYTFTSYFLHWVKQRPGQGLEWIGYMNPSSGYTKCNQKFKDKATLTADKSSSTAYMQVSSLTYEDSAVYYCARDRIGYWDFDVWGTGTTVTVSS
VL: DVVMTQSQKFMSTTVGDRVSITCKASQNVGTAVAWYQQKPGQSPKLLIYSASNRYTGVPDRFTGSGSGTDFTLTITNMQSEDLADYFCQQYSSYLTFGAGTKLDLK
notes: Mouse hybridoma monoclonal antibody

IFNγ (full length human KLRG1 [2]): 1050 pg/mL
EC50 [3]: 0.5 nM
binding result (cynomolgus KLRG1 ECD): binds
EC50 (full length human KLRG1 [4]): 39.8 nM
IFNγ released (pg/ml), Sample 1 (full length human KLRG1 [6]): 1010 pg/mL
IFNγ released (pg/ml), Sample 2 (full length human KLRG1 [6]): 1080 pg/mL
IC50 (full length human KLRG1 [7]): 23 nM
IC50 (full length human KLRG1 [8]): 23 nM
B3: ABC_G1N05 (antibody, V domains shown)
VH: EVLLMESGGDLVKPGGSLKLSCAASGFTFSSYDMSWVRQTPDKRLEWVATISSSGRYTFYPDNVKGRFTISRDNAKNTLYLQVSNLKSEDTAMYYCSRTGVTTVVFTDYFDYWGQGTTLTVSS
VL: DIQMTQSPSSLSASLGERVSLTCRASQDIGNSLNWLQQGPDGTIKRLIYATSSLDSGVPKRFSGSRSGSTYSLTISSLESEDFVAYYCLQYLSSPPTFGGGTKLEIK
notes: as for B2

IFNγ (full length human KLRG1 [2]): 1480 pg/mL
EC50 [3]: 0.98 nM
binding result (cynomolgus KLRG1 ECD): binds
EC50 (full length human KLRG1 [4]): 0.94 nM
IC50 (full length human KLRG1 [9]): 9.6 nM
IFNγ released (pg/ml), Sample 1 (full length human KLRG1 [6]): 1580 pg/mL
IFNγ released (pg/ml), Sample 2 (full length human KLRG1 [6]): 1390 pg/mL
IC50 (full length human KLRG1 [7]): 9.6 nM
B4: ABC_G1N07 (antibody, V domains shown)
VH: EVQLVESGGGLVKPGGSLKLSCTASGFTFRNYAMSWVRQTPEKRLEWVATISESGNYNNYPDNVKGRLTISRDNAKNNLYLQMSLLKSEDTAMYYCVRDDWEGRAMDYWGQGTSVTVSS
VL: B3 VL with D1G, Q27R, N31S, G39K, S69T, T70D, A85D, Y87F, L92A, P96W
notes: as for B2

IFNγ (full length human KLRG1 [2]): 1370 pg/mL
EC50 [3]: 2.02 nM
binding result (cynomolgus KLRG1 ECD): binds
EC50 (full length human KLRG1 [4]): 1.01 nM
IFNγ released (pg/ml), Sample 1 (full length human KLRG1 [6]): 1440 pg/mL
IFNγ released (pg/ml), Sample 2 (full length human KLRG1 [6]): 1290 pg/mL
IC50 (full length human KLRG1 [7]): 5.03 nM
IC50 (full length human KLRG1 [10]): 5 nM
B5: ABC_G1N02 (antibody, V domains shown)
VH: QVTLKESGPGILQPSQTLSLTCSVSGFSLSTFGMGVGWIRQPSGKGLEWLAHIWWDDDKWYELALKSRLTISKDSSKNQVFLKIANVDTADTATYFCARVIYYGSRSAYYSMDYWGPGTSVTVSS
VL: DVLMTQTPLSLPVSLGAQASISCKSSQSIVHSNGHTYLEWYLQKPGQSPKILIYKVSNRFSGVPDRFSGSGSGTDFTLKISRVEAEDLGVYYCFQGSHVPVTFGAGTKLELK
notes: as for B2

Source: US20210347899A1 (BRIGHAM AND WOMEN S HOSPITAL, published 2021)
